Test results from PMC2935290.

Molecular target: HLA-DPB1*0101 (human (endogenous in VAVY))
Assay: radioligand binding

- other: 3.1
Substance: … A7W (peptide)
